The values that follow come from patent US20220064312A1 (SHIONOGI, published 2022).

Where two headings read alike, the source gives them in different places.

In assay [1] the target is T1, mouse CCR8 (mouse, UniProt P56484 1-353).
T1 construct: also called mCCR8
T1 sequence: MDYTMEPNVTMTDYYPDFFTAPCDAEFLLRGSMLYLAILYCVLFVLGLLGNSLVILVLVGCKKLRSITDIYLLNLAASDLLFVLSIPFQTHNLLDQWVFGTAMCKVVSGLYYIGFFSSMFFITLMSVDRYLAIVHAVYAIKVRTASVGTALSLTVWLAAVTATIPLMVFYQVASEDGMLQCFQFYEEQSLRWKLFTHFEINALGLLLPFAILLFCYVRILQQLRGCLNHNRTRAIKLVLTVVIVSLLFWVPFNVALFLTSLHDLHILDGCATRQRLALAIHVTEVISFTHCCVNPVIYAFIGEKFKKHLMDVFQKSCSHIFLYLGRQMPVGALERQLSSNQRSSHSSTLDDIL
Kind of assay: flow cytometry, transfected Expi293 cells. In general terms: In flow cytometry, cells or beads pass a laser one at a time.

Assay [2] deals with T2, human CCR4 (human, UniProt P51679 1-360).
T2 construct: also called hCCR4
T2 sequence: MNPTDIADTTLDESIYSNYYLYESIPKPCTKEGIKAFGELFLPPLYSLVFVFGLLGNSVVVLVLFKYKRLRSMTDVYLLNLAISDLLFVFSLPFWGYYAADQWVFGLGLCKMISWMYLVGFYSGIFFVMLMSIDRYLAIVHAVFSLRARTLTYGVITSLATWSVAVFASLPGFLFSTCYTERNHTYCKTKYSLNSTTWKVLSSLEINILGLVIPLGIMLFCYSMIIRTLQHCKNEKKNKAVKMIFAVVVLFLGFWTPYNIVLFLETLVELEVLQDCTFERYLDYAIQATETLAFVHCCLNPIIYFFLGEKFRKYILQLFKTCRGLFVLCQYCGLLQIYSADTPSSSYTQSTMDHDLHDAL
Kind of assay: flow cytometry, transfected Expi293 cells.

Assay [3] has as its target T3, N-ter hCCR4-hCCR8 (human).
T3 construct: chimera on Expi293 cells; remaining hCCR8 ranges derived from the stated swapped ranges and the 355-residue length; also called N-terminal region human CCR4-substituted human CCR8
T3 chain: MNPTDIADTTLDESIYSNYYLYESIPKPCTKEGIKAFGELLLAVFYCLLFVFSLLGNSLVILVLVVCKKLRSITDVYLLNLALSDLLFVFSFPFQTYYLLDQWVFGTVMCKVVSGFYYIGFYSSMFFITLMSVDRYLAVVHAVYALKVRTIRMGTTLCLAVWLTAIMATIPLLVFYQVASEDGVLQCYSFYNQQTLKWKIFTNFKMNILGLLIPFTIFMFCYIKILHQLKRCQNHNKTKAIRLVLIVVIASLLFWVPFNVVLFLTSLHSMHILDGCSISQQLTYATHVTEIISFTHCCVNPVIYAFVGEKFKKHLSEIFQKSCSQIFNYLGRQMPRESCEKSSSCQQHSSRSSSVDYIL
Kind of assay: flow cytometry, transfected Expi293 cells.

In assay [4] the target is hCCR8 (Y17A) (human, UniProt P51685 1-355). Kind of assay: flow cytometry, transfected Expi293 cells.
Chain of hCCR8 (Y17A) (P51685 whole entry Y17A): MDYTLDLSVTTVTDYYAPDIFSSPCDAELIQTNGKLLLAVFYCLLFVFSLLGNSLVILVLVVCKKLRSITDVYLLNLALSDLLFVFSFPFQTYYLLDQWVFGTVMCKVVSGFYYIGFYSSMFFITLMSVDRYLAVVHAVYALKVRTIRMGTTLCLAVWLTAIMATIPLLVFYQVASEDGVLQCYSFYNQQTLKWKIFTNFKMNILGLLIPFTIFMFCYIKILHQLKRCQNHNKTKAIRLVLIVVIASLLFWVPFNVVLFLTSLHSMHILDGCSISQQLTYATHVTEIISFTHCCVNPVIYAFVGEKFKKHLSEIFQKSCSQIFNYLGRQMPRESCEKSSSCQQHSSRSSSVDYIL
Assay [5] has as its target T4, loop2 hCCR4-hCCR8 (human, UniProt P51685 1-355).
T4 construct: chimera on Expi293 cells; hCCR8 ranges derived; also called loop2-human CCR4-substituted human CCR8
The assay is described as follows: flow cytometry, transfected Expi293 cells; Δ = significantly reduced vs hCCR8.

Assay [6] concerns the target T5, loop1 hCCR4-hCCR8 (human, UniProt P51685 1-355).
T5 construct: chimera on Expi293 cells; hCCR8 ranges derived; also called loop 1-human CCR4-substituted human CCR8
Described as above.

Assay [7] deals with T6, human CCR8 (human, UniProt P51685 1-355). The assay is described as follows: cell-based or functional assay.
T6 sequence (P51685 whole entry): as the sequence (P51685 whole entry Y17A) above, with A17Y counted along it
The target in assay [8] is T5, loop1 hCCR4-hCCR8. Kind of assay: flow cytometry, transfected Expi293 cells.
For assay [9], the target named is T6, human CCR8. Kind of assay: cell-based or functional assay. This is another data set of the same source.
Assay [10] deals with T6, human CCR8. The assay is described as follows: cell-based or functional assay. The source holds these as a separate data set.
In assay [11] the target is T6, human CCR8. The assay is described as follows: cell-based or functional assay. This is another data set of the same source.

B1: 27G1 (antibody, V domains shown)
VH: EVQLVESGGRLVQPKGSLKLSCAASGFAFNTYAMYWIRQAPGKGLEWVARIRSKSNNYATYYADSVKDRFTISRDDSQSMLYLQMNNLKTEDTAMYYCVRARFYYSDYGYAMDYWGQGTSVTVSS
VL: DIVMTQAAPSVPVTPGESVSISCRSSKSLLHSNGNTYLYWFLQRPGQSPQLLIYRMSNLASGVPDRFSGSGSGTAFTLRISRVEAEDVGVYYCMQHLEYPLTFGAGTKLELKR
notes: mouse hybridoma antibody
As for B1, the binding result in assay [1] is “no binding”; in assay [2], “no binding”; in assay [3], “no binding”; in [4], “no binding”; in [5], “binds”; in assay [6] it was “binds”. Also, in assay [7], the “Neutralizing Activity IC50 (nM), Ca2+ influx by 100 nM hCCL1” value (“Neutralizing Activity IC50 (nM)” below) is 0.09 nM.

B2: 8F7 (antibody, V domains shown)
VH: EVQLVESGGRLVQPKRSLKLSCAASGFTFNPYAMYWIRQAPGQGLEWVARIRSKSNNYATYYADSVKDRFTISRDDSQSMLYLQMNNLKTEDTAMYYCVRGHQGTMDYWGQGTSVTVSS
VL: DIVMTQAAPSVPVTPGESVSISCRSSKSLLHSNGNTYLYWFLQRPGQSPQLLTYRMSNLASGVPDRFSGSGSGTAFTLRISRVEAEDVGVYYCMQHLEYPFTFGGGTKLEIKR
notes: mouse hybridoma antibody
Regarding B2, the binding result is reported as “no binding” in [1]; “no binding” in assay [2]; “no binding” in [3]; “no binding” in [4]; “no binding” in [8]; “binds” in assay [5]. In addition, in [7], the “Neutralizing Activity IC50 (nM)” value was found to be 1.56 nM. For the same molecule, in [9], the “IC50 (nM), Ca2+ influx by 200 nM hCCL1” value was determined as 3.03 nM.

B3: 10A11 (antibody, V domains shown)
VH: EVQLVESGGRLVQPKGSLKLSCAASGFAFNTYALYWIRQAPGKGLEWVARIRSKSNNYATYYADSVKDRFTISRDDSQSMLYLQMNNLKTEDTAMYYCVRARFYYSDYGYAMDYWGQGTSVTVSS
VL: DIVMTQAAPSVPVTPGESVSISCRSSKSLLHSNGNTYLYWFLQRPGQSPQLLIYRMSNLASGVPDRFSGSGSGTAFTLRISRVEAEDVGVYYCMQHLEYPLTFGAGTKLELKR
notes: mouse hybridoma antibody; also called m10A11; clone No. 10A11
As to B3, the binding result in assay [1] was “no binding”; in assay [2], “no binding”; in [3] it was “no binding”; in [4], “no binding”; in [5] it was “binds”; in [6], “binds”. In addition, the “Neutralizing Activity IC50 (nM)” value in [7] was found to be 0.08 nM. Also, the “IC50 (nM), Ca2+ influx by 200 nM hCCL1” value in assay [9] and in assay [10] was 0.23 nM each time.

B4: 2C7 (antibody, V domains shown)
VH: QVQLKQSGPSLVQPSQSLSITCTVSGFSLTAYGVHWIRQSPGKGQEWLGVIWRGGSTDYNAAFMSRLTITKDNSKSQVFFKMNSLQADDTAIYYCAKKGGSYAMDYWGQGTSVTVSS
VL: DVVLTQTPLSLPVSLGGQASISCRSSQSLVHSNGNTYLHWYLQKPGQSPKLLIYKVSNRFSGVPDRFSGSGSGTDFTLKISRVEAEDLGVYFCSQSTQVPLTFGAGTKLELKR
notes: mouse hybridoma antibody
In the case of B4, the binding result in assay [1] is recorded as “no binding”; in assay [2], “no binding”; in [3], “no binding”; in assay [4] it was “no binding”; in assay [8] it was “no binding”; in [5] it was “binds”. For the same molecule, the “Neutralizing Activity IC50 (nM)” value in assay [7] was 0.4 nM. Moreover, the “IC50 (nM), Ca2+ influx by 200 nM hCCL1” value in assay [9] turned out to be 1.19 nM.

B5: h10A11 IGKV3-20 N53Q, G29R/IGHV3-15 T94R (antibody, V domains shown)
VH: EVQLVESGGALVKPGGSLRLSCAASGFTFSTYALYWVRQAPGKGLEWVGRIRSKSNNYATYYADSVKDRFTISRDDSKNTLYLQMNSLKTEDTAVYYCTRARFYYSDYGYAMDYWGQGTLVTVSS
VL: EIVLTQSPGTLSLSPGERATLSCRSSKSLLHSNRNTYLYWYQQKPGQAPRLLIYRMSQLASGIPDRFSGSGSGTDFTLTISRLEPEDFAVYYCMQHLEYPLTFGQGTKVEIKR
As for B5, the “IC50 (nM), Ca2+ influx by 200 nM hCCL1” value in assay [11] was 0.19 nM.
